# Reference: patent US20100317083A1
# Experiments:
# [1] = target: human IgG3 purified from human plasma (human) (UniProt P01860); test: SPR (BIAcore), IgG3 immobilized, EndoS(E235Q) injected, deglycosylated IgG flow cell as reference
# [2] = target: human IgG3 purified from human plasma (human) (UniProt P01860); test: cell-based or functional assay
# UniProt P01860, sequence (P01860 whole entry, form in doubt): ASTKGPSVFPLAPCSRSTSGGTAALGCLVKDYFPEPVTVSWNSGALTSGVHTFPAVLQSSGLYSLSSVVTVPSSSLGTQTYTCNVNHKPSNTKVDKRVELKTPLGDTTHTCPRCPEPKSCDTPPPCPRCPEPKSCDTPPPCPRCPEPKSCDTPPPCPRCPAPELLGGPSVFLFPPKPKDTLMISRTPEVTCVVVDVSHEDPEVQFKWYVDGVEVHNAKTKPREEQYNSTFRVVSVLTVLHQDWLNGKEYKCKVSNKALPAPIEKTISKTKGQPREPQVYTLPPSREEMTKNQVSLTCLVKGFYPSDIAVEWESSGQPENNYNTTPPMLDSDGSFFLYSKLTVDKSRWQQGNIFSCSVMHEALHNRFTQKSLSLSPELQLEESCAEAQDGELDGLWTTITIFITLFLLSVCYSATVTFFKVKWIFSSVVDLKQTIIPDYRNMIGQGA
Substance,Kd [1],koff [1],kon [1],SDS-PAGE migration of IgG after incubation with EndoS; LCA lectin blot [2]
"EndoS(E235Q), modified EndoS polypeptide lacking IgG endoglycosidase activity (from UniProt Q99Y92 37-995) (enzyme)",83 nM,0.0089 s⁻¹,107000 M⁻¹ s⁻¹,–
"EndoS (Endoglycosidase S) from S. pyogenes AP1, recombinant, without GST (from UniProt Q99Y92 37-995) (enzyme)",–,–,–,3 kDa
